According to article PMC12365907, “https://orcid.org/0000-0002-7156-8846 Tungsirisurp Sireethorn Conceptualization Methodology Formal analysis Investigation Data curation Writing – original draft Writing – review & editing”:

How the values were obtained:
[1] = biological target: T1, SARS-CoV-2 spike receptor binding domain (RBD) (SARS-CoV-2, UniProt P0DTC2 319-541); assay: ELONA; details: protein: commercial; label: 5'-biotin
[2] = biological target: T1, SARS-CoV-2 spike receptor binding …; assay: fluorescent strand displacement from beads; details: protein: commercial

Row | Binder | Kd [1] | binding result [2]
1 | RBD-1 aptamer (ssDNA) DNA: CAGCACCGACCTTGTGCTTTGGGAGTGCTGGTCCAAGGGCGTTAATGGACA | 4.58 ± 1.15 nM | 
2 | RBD-1/MM-T9 antisense duplex (mixed) DNA 1: CAGCACCGACCTTGTGCTTTGGGAGTGCTGGTCCAAGGGCGTTAATGGACA DNA 2: GTCGGTGCAG |  | binds
3 | RBD-1/CM antisense duplex (mixed) DNA 1: CAGCACCGACCTTGTGCTTTGGGAGTGCTGGTCCAAGGGCGTTAATGGACA DNA 2: GTCGGTGCTG |  | binds
4 | RBD-1/MM-T2 antisense duplex (mixed) DNA 1: CAGCACCGACCTTGTGCTTTGGGAGTGCTGGTCCAAGGGCGTTAATGGACA DNA 2: GACGGTGCTG |  | binds
